According to patent US12466859B2, “Desmoglein 2 (DSG2) binding proteins and uses therefor” (UNIVERSITY OF WASHINGTON THROUGH ITS CENTER FOR …, priority 2013, dated 2025):

Columns and labels:
Ad3-GFP virus = assay: Competition of Ad3-GFP virus infection on HeLa cells; type: cell-based, adenovirus serotype 3; conditions: pre-incubation with knob; GFP expression
Procedure: FIG. 3A-3D. Competition of Ad3 virus by dimerized Ad3 knob mutants. FIG. 3A) Relative attachment of ^3H-labeled Ad3 virus in the presence of dimeric fiber knob mutants. 1.8×10^5 HeLa cells were incubated with Ad3 knob mutants at a concentration of 2.5 and 100 μg/ml on ice for 1 hour. Then 400 pfu/cell of ^3H-Ad3 virus was added on ice for another hour. Unbound virus particles were washed away. Attachment of virus particles incubated with PBS was taken as 100%. N=3. FIG. 3B1-3B2) Competition of Ad3-GFP virus infection on HeLa cells. 1.5×10^5 HeLa cells were seeded into 24 well plates. Cells were incubated with the Ad3 knob mutants at increasing concentrations for one hour at room temperature. 100 pfu/cell of Ad3-GFP virus were then added and GFP expression was analyzed 18 hours later by flow cytometry. FIG. 3B1) percentage of GFP positive cells. FIG. 3B2) mean fluorescence intensity. N=3. The standard deviation was less than 10%. FIG. 3C) Relative attachment of ^3H-labeled Ad3 virus in the presence of dimeric fiber knob mutants with multiple mutations. The study was performed as described in […]) The standard deviation was less than 10%. FIG. 3D) Competition of Ad3-GFP virus infection on HeLa cells. The study was performed as described in FIG. 3C) The standard deviation was less than 10%.
FIG. 9A1-9C. Analysis of dimeric Ad3 fiber knob mutants with increased affinity to DSG2. FIG. 9A1-9A2) Competition of Ad3-GFP virus infection on HeLa cells with dimeric affinity-enhanced mutant Y250F and JO-1 (dimeric wt Ad3 fiber knob). The experimental setting is as described for FIG. 3C. FIG. 9A1) percentage of GFP positive cells. FIG. 9A2) mean fluorescence intensity. N=3. The standard deviation was less than 10%. […] 100 pfu/cell of Ad3GFP virus were then added and GFP expression was analyzed 18 hours later. […]
Functional validation. […] Transduction was measured based on GFP expression (FIG. 3B). […] Dimeric Ad3 knob mutants with combined mutations were also analyzed for their ability to compete with Ad3 virus for attachment (FIG. 3C) and infection (FIG. 3D).

DSG2 = biological target: T1, DSG2 (Homo sapiens, UniProt Q14126); assay: Surface plasmon resonance of Ad3 fiber knobs on immobilized DSG2; type: binding; conditions: affinity to DSG2
T1 construct: Western blot using soluble recombinant DSG2 as a probe; purchased Leinco Technologies, Inc. (St. Louis, MO)
T1 sequence (Q14126 50-609 limits assumed): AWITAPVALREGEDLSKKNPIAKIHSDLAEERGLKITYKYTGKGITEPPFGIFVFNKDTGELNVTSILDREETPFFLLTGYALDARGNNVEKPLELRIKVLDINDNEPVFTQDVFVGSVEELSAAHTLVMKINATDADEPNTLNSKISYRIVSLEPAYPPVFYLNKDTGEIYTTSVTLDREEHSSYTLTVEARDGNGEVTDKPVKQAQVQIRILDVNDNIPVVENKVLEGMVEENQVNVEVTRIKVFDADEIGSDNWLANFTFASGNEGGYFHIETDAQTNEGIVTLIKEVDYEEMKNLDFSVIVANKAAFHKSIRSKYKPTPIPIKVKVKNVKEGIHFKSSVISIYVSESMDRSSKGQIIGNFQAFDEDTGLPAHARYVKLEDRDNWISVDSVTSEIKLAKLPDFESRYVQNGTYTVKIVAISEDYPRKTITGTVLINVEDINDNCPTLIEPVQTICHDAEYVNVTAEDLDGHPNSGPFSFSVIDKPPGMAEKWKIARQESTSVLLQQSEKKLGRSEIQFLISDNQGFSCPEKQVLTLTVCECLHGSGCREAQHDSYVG
Procedure: FIG. 7A-7B. SPR analysis of non-dimerized Ad3 fiber knob interactions with DSG2. FIG. 7A) DSG2 was immobilized on sensorchips, and background was automatically subtracted from the control flow cell. The Ad3 fiber knobs (w/o dimerization domain: “noDD”) were injected for 3 minutes at 2.5 μg/ml followed by a 2.5 minutes dissociation period. FIG. 7B) Summary of SPR data. […] The extracted data are resumed in the table. Wt=Ad3 fiber knob without mutations FIG. 8A-8G. Electron microscopy and 3D structure of Ad3 fiber knob mutant JO-2.
Surface Plasmon Resonance: Acquisitions were done on a BIAcore 3000 instrument. HBS-N (GE-Healthcare, Pittsburgh, PA) supplemented with 2 mM CaCl2) was used as running buffer in all experiments at a flow rate of 5 [l/min. Immobilization on CM4 sensorchip (BIAcore) was performed using DSG2 at 10 μg/ml diluted in 10 mM Acetate buffer pH 4.5 injected for 10 minutes on ethyl(dimethylaminopropyl) carbodiimide (EDC)/N-Hydroxysuccinimide (NHS) activated flow-cell. A control flow-cell was activated by (EDC/NHS) and inactivated by ethanolamine. Different concentrations of Ad3 fiber knob proteins were injected for 3 minutes association followed by 2.5 minutes dissociation time, and the signal was automatically subtracted from the background of the ethanolamine deactivated EDC-NHS flow cell. Kinetic and affinity constants were calculated using the BIAeval software.

B1: D261N (protein)
chain: MKVSALKEKVSALKEKVSALKEKVSALKEKVSALKEGSGGGSGGGSGGGSNSIALKNNTLWTGPKPEANCIIEYGKQNPDSKLTLILVKNGGIVNGYVTLMGASDYVNTLFKNKNVSINVELYFDATGHILPDSSSLKTDLELKYKQTADFSARGFMPSTTAYPFVLPNAGTHNENYIFGQCYYKASNGALFPLEVTVMLNKRLPDSRTSYVMTFLWSLNAGLAPETTQATLITSPFTFSYIREDD
In the case of B1, the “Inhibition of Ad3-GFP infection of HeLa cells, in words” value (Ad3-GFP virus) is reported as “least reduced”.

B2: JO-4 (protein)
chain: MKVSALKEKVSALKEKVSALKEKVSALKEKVSALKEGSGGGSGGGSGGGSNSIALKNNTLWTGPKPEANCIIEYGKQNPDSKLTLILVKNGGIVNGYVTLMGASDYVNTLFKNKNVSINVELYFDATGHILPDSSSLKTDLELKYKQTADFSARGFMPSTTAYPFVLPNAGTHNENFIFGQCYYKASDGALFPLEVTVMLNKRLPDSRTSYVMTFLWSLNAGLAPETTQATLITSPFTFSYIREDD
Molecule B2 has a Kd (DSG2) of 11.4 nM.
